B1: v30384-MC-GGFG-AM-DXd1 (antibody, human IgG1, kappa)
heavy 1: EVQLLESGGGLVQPGGSLRLSCAVSGFSLSSYGVSWVRQAPGKGLEWIGAVNSGGSAYYADSVKGRSTISRDNSKNTVYLQMNSLRAEDTAVYYCARSGSGYPMDYLAIWGQGTLVTVSSASTKGPSVFPLAPSSKSTSGGTAALGCLVKDYFPEPVTVSWNSGALTSGVHTFPAVLQSSGLYSLSSVVTVPSSSLGTQTYICNVNHKPSNTKVDKKVEPKSCDKTHTCPPCPAPELLGGPSVFLFPPKPKDTLMISRTPEVTCVVVDVSHEDPEVKFNWYVDGVEVHNAKTKPREEQYNSTYRVVSVLTVLHQDWLNGKEYKCKVSNKALPAPIEKTISKAKGQPREPQVYVYPPSRDELTKNQVSLTCLVKGFYPSDIAVEWESNGQPENNYKTTPPVLDSDGSFALVSKLTVDKSRWQQGNVFSCSVMHEALHNHYTQKSLSLSPG
heavy 2: not shown
light: DYQMTQSPSSVSASVGDRVTITCRASQSIGDWLAWYQQKPGKAPKLLIYEASTLASGVPSRFSGSGSGTDFTLTISSVQPEDAATYYCQQGYGRSNVDNIFGGGTKVEVKRTVAAPSVFIFPPSDEQLKSGTASVVCLLNNFYPREAKVQWKVDNALQSGNSQESVTEQDSKDSTYSLSSTLTLSKADYEKHKVYACEVTHQGLSSPVTKSFNRGEC
modifications: drug-linker MC-GGFG-AM-DXd1 on the antibody at DAR 8; conjugated residues not stated
B2: v30384-MT-GGFG-AM-Compound 139 (antibody, human IgG1, kappa)
heavy 1: B1 heavy 1
heavy 2: not shown
light: B1 light
modifications: drug-linker MT-GGFG-AM-Compound 139 on the antibody at DAR 8; conjugated residues not stated
B3: v30384-MT-GGFG-Compound 140 (antibody, human IgG1, kappa)
heavy 1: B1 heavy 1
heavy 2: not shown
light: B1 light
modifications: drug-linker MT-GGFG-Compound 140 on the antibody at DAR 8; conjugated residues not stated
B4: v30384-MC-GGFG-AM-Compound 141 (antibody, human IgG1, kappa)
heavy 1: B1 heavy 1
heavy 2: not shown
light: B1 light
modifications: drug-linker MC-GGFG-AM-Compound 141 on the antibody at DAR 8; conjugated residues not stated
B5: v30384-MT-GGFG-Compound 148 (antibody, human IgG1, kappa)
heavy 1: B1 heavy 1
heavy 2: not shown
light: B1 light
modifications: drug-linker MT-GGFG-Compound 148 on the antibody at DAR 8; conjugated residues not stated
B6: v30384-MT-GGFG-Compound 141 (antibody, human IgG1, kappa)
heavy 1: B1 heavy 1
heavy 2: not shown
light: B1 light
modifications: drug-linker MT-GGFG-Compound 141 on the antibody at DAR 8; conjugated residues not stated
B7: v30384-MC-GGFG-Compound 140 (antibody, human IgG1, kappa)
heavy 1: B1 heavy 1
heavy 2: not shown
light: B1 light
modifications: drug-linker MC-GGFG-Compound 140 on the antibody at DAR 8; conjugated residues not stated

The binders below were run against T1, human FRα on cells (human, UniProt P15328 25-234) (assay: cell-based or functional assay).
T1 sequence (P15328 25-234 limits assumed): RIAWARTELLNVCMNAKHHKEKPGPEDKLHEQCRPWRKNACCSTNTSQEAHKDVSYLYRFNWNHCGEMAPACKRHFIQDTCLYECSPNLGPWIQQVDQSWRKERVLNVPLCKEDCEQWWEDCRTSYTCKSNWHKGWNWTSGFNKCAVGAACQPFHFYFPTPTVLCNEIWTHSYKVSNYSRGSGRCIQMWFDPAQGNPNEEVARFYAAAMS

| Binder | EC50 (nM), in vitro cytotoxicity, 2D monolayer, JEG-3 cells, 4 days [nM] | EC50 (nM), in vitro cytotoxicity, 2D monolayer, KB-HeLa cells, 4 days [nM] | EC50 (nM), in vitro cytotoxicity, 2D monolayer, T-47D cells, 4 days [nM] |
| --- | --- | --- | --- |
| B1 | 0.54 | 0.52 | 2.08 |
| B2 | 1.14 | 0.72 | 1.12 |
| B3 | 1.29 | 3.75 | 12.4 |
| B4 | 3.45 | 0.77 | 0.43 |
| B5 | 0.54 | 0.73 | 3.45 |
| B6 | 1.68 | 0.81 | 0.44 |

Molecular target: T1, human FRα on cells
Assay: cell-based or functional assay
Remark: another data set of the same source

| Binder | 3D EC50 (nM), in vitro cytotoxicity, HEC-1-A spheroids, 6 days [nM] | 3D EC50 (nM), in vitro cytotoxicity, IGROV-1 spheroids, 6 days [nM] | 3D EC50 (nM), in vitro cytotoxicity, OVCAR-3 spheroids, 6 days [nM] | 3D EC50 (nM), in vitro cytotoxicity, T-47D spheroids, 6 days [nM] |
| --- | --- | --- | --- | --- |
| B1 | 1.1 | 0.5 | 8.2 | 0.9 |
| B2 | 3.9 | 1 | 1.5 | 1.1 |
| B4 | 8.5 | 0.6 | 1.8 | 0.4 |
| B6 | 5 | 1 | 1.6 | 0.4 |
| B7 | 6.7 | 0.2 | 20.5 | 1.6 |

From patent US20240424125A1 (Zymeworks, published 2024)
